Data taken from PMC12207370, “Macrocyclic Peptide Probes for Immunomodulatory Protein CD59: Potent Modulators of Bacterial Toxin Activity and Antibody‐Dependent Cytotoxicity” (Angewandte Chemie (International Ed. in English), 2025).

Molecular target: T1, biotinylated CD59 (Homo sapiens, UniProt P13987)
T1 construct: Recombinant soluble human CD59 with an additional C-terminal cysteine residue
T1 sequence (P13987 26-102 limits assumed): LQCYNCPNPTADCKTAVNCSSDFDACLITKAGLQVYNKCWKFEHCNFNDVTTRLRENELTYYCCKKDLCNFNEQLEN
Assay: mRNA-display cyclic peptide screen against CD59-biotin, NGS abundance after 6th selection round
Settings: for Counts (raw counts for peptide sequence), Seq I: NGS sample Seq I; for Counts (raw counts for peptide sequence), Seq I / Counts (raw counts for peptide sequence), Seq II / Counts Seq I / Counts Seq II: sheet R6 (6th selection round); for Counts (raw counts for peptide sequence), Seq II: NGS sample Seq II; for Percentage of the pool, averaged across the two sequencing samples: average of Seq I and Seq II; for Percentage of the pool, averaged across the two sequencing samples / Percentage of the pool, Seq I / Percentage of the pool, Seq II / Percentage Seq I / Percentage Seq II / Percentage Average: sheet R6; for Percentage of the pool, Seq I: counts normalised by total counts of NGS sample Seq I; for Percentage of the pool, Seq II: counts normalised by total counts of NGS sample Seq II; for Percentage Seq I: counts normalised by total counts of sample Seq I; for Percentage Seq I / Percentage Seq II: percentage of the pool; for Percentage Seq II: counts normalised by total counts of sample Seq II; for Percentage Average: percentage of the pool averaged across the two sequencing samples; for Counts Seq I / Counts Seq II: raw NGS counts of peptide sequence; for Counts Seq I: sequencing sample Seq I; for Counts Seq II: sequencing sample Seq II
Method in brief: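 Peptide–mRNA fusions were made by in vitro translation with a customised PURE express kit. The kit lacked release factor 1 and methionine and was supplemented with […] initiator tRNA carrying N-chloroacetyl-d-tyrosine. Thioether macrocycles were formed, then enriched and amplified over iterative rounds on CD59-biotin immobilised on streptavidin beads. NGS read counts per sequence were recorded after the 6th selection round.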

## FARGDWNHQFY
  Counts (raw counts for peptide sequence), Seq I: 120
  Counts (raw counts for peptide sequence), Seq II: 3
  Percentage of the pool, averaged across the two sequencing samples: 0.017%
  Percentage of the pool, Seq I: 0.027%
  Percentage of the pool, Seq II: 0.007%

## CFSRRSTSSQST
  Percentage Seq I: 0.018%
  Percentage Seq II: 0.019%
  Percentage Average: 0.018%
  Counts Seq I: 77
  Counts Seq II: 8

## FRGRNDICTH
  Counts (raw counts for peptide sequence), Seq I: 73
  Counts (raw counts for peptide sequence), Seq II: 8
  Percentage of the pool, averaged across the two sequencing samples: 0.018%
  Percentage of the pool, Seq I: 0.017%
  Percentage of the pool, Seq II: 0.019%

## FIRGNSTSVLFAAAAAAARTGGG
  Counts (raw counts for peptide sequence), Seq I: 40
  Counts (raw counts for peptide sequence), Seq II: 7
  Percentage of the pool, averaged across the two sequencing samples: 0.013%
  Percentage of the pool, Seq I: 0.009%
  Percentage of the pool, Seq II: 0.016%

## SKNGLTFLCS
  Percentage Seq I: 0.016%
  Percentage Seq II: 0.032%
  Percentage Average: 0.024%
  Counts Seq I: 70
  Counts Seq II: 14

## CLRKTRDILSV
  Counts (raw counts for peptide sequence), Seq I: 65
  Counts (raw counts for peptide sequence), Seq II: 6
  Percentage of the pool, averaged across the two sequencing samples: 0.014%
  Percentage of the pool, Seq I: 0.015%
  Percentage of the pool, Seq II: 0.014%

## CAWGNRHTAYY
  Percentage Seq I: 0.018%
  Percentage Seq II: 0.030%
  Percentage Average: 0.024%
  Counts Seq I: 80
  Counts Seq II: 13

## CPRYVSRGFA
  Counts (raw counts for peptide sequence), Seq I: 72
  Counts (raw counts for peptide sequence), Seq II: 5
  Percentage of the pool, averaged across the two sequencing samples: 0.014%
  Percentage of the pool, Seq I: 0.016%
  Percentage of the pool, Seq II: 0.012%

## CYGGRTFIHAWS
  Percentage Seq I: 0.054%
  Percentage Seq II: 0.049%
  Percentage Average: 0.051%
  Counts Seq I: 237
  Counts Seq II: 21

## SAWGNRQIQHY
  Counts (raw counts for peptide sequence), Seq I: 74
  Counts (raw counts for peptide sequence), Seq II: 3
  Percentage of the pool, averaged across the two sequencing samples: 0.012%
  Percentage of the pool, Seq I: 0.017%
  Percentage of the pool, Seq II: 0.007%

## IARGDWNHQFF
  Counts (raw counts for peptide sequence), Seq I: 56
  Counts (raw counts for peptide sequence), Seq II: 3
  Percentage of the pool, averaged across the two sequencing samples: 0.010%
  Percentage of the pool, Seq I: 0.013%
  Percentage of the pool, Seq II: 0.007%

## FVSGNRDHTRG
  Counts (raw counts for peptide sequence), Seq I: 51
  Counts (raw counts for peptide sequence), Seq II: 5
  Percentage of the pool, averaged across the two sequencing samples: 0.012%
  Percentage of the pool, Seq I: 0.012%
  Percentage of the pool, Seq II: 0.012%

## CYGNSHASWG
  Percentage Seq I: 0.483%
  Percentage Seq II: 0.469%
  Percentage Average: 0.476%
  Counts Seq I: 2115
  Counts Seq II: 202

## CFRFRLNATSS
  Percentage Seq I: 0.075%
  Percentage Seq II: 0.060%
  Percentage Average: 0.068%
  Counts Seq I: 329
  Counts Seq II: 26

## SWTWGNRSSARG
  Percentage Seq I: 0.025%
  Percentage Seq II: 0.035%
  Percentage Average: 0.030%
  Counts Seq I: 110
  Counts Seq II: 15

## CAWGNRHIAYY
  Percentage Seq I: 0.183%
  Percentage Seq II: 0.195%
  Percentage Average: 0.189%
  Counts Seq I: 800
  Counts Seq II: 84

## CFAGRLTIDAG
  Counts (raw counts for peptide sequence), Seq I: 59
  Counts (raw counts for peptide sequence), Seq II: 4
  Percentage of the pool, averaged across the two sequencing samples: 0.011%
  Percentage of the pool, Seq I: 0.013%
  Percentage of the pool, Seq II: 0.009%

## LYGNRDYSFYRP
  Percentage Seq I: 0.162%
  Percentage Seq II: 0.169%
  Percentage Average: 0.166%
  Counts Seq I: 707
  Counts Seq II: 73

## PWTWGNRSSVRG
  Counts (raw counts for peptide sequence), Seq I: 49
  Counts (raw counts for peptide sequence), Seq II: 10
  Percentage of the pool, averaged across the two sequencing samples: 0.017%
  Percentage of the pool, Seq I: 0.011%
  Percentage of the pool, Seq II: 0.023%

## SAWGSRQIQYY
  Percentage Seq I: 0.059%
  Percentage Seq II: 0.051%
  Percentage Average: 0.055%
  Counts Seq I: 257
  Counts Seq II: 22

## CFSSRVQSGDT
  Percentage Seq I: 0.214%
  Percentage Seq II: 0.190%
  Percentage Average: 0.202%
  Counts Seq I: 936
  Counts Seq II: 82

## SSYRELAHLPC
  Percentage Seq I: 0.031%
  Percentage Seq II: 0.046%
  Percentage Average: 0.039%
  Counts Seq I: 135
  Counts Seq II: 20

## TFAHRVGSCQST
  Percentage Seq I: 0.019%
  Percentage Seq II: 0.026%
  Percentage Average: 0.022%
  Counts Seq I: 85
  Counts Seq II: 11

## VASGGRYWSRA
  Percentage Seq I: 0.103%
  Percentage Seq II: 0.139%
  Percentage Average: 0.121%
  Counts Seq I: 449
  Counts Seq II: 60

## CFSRRLTEGAI
  Counts (raw counts for peptide sequence), Seq I: 41
  Counts (raw counts for peptide sequence), Seq II: 5
  Percentage of the pool, averaged across the two sequencing samples: 0.010%
  Percentage of the pool, Seq I: 0.009%
  Percentage of the pool, Seq II: 0.012%

## IATGSKLYAKG
  Percentage Seq I: 0.033%
  Percentage Seq II: 0.046%
  Percentage Average: 0.040%
  Counts Seq I: 145
  Counts Seq II: 20

## SWTRGNRSSVRG
  Counts (raw counts for peptide sequence), Seq I: 44
  Counts (raw counts for peptide sequence), Seq II: 5
  Percentage of the pool, averaged across the two sequencing samples: 0.011%
  Percentage of the pool, Seq I: 0.010%
  Percentage of the pool, Seq II: 0.012%

## YIYWSFTSARG
  Percentage Seq I: 0.050%
  Percentage Seq II: 0.032%
  Percentage Average: 0.041%
  Counts Seq I: 219
  Counts Seq II: 14

## HVFGNGSFTRG
  Percentage Seq I: 0.031%
  Percentage Seq II: 0.035%
  Percentage Average: 0.033%
  Counts Seq I: 137
  Counts Seq II: 15

## CFASRLTIDAV
  Percentage Seq I: 0.032%
  Percentage Seq II: 0.028%
  Percentage Average: 0.030%
  Counts Seq I: 140
  Counts Seq II: 12

## FIRGDSTSVLF
  Counts (raw counts for peptide sequence), Seq I: 54
  Counts (raw counts for peptide sequence), Seq II: 6
  Percentage of the pool, averaged across the two sequencing samples: 0.013%
  Percentage of the pool, Seq I: 0.012%
  Percentage of the pool, Seq II: 0.014%

## CFAGRLTIDAAAAAAARTGGG
  Counts (raw counts for peptide sequence), Seq I: 62
  Counts (raw counts for peptide sequence), Seq II: 9
  Percentage of the pool, averaged across the two sequencing samples: 0.018%
  Percentage of the pool, Seq I: 0.014%
  Percentage of the pool, Seq II: 0.021%

## WRDRFGQCVL
  Counts (raw counts for peptide sequence), Seq I: 27
  Counts (raw counts for peptide sequence), Seq II: 7
  Percentage of the pool, averaged across the two sequencing samples: 0.011%
  Percentage of the pool, Seq I: 0.006%
  Percentage of the pool, Seq II: 0.016%

## FARGDRNHQFY
  Counts (raw counts for peptide sequence), Seq I: 63
  Counts (raw counts for peptide sequence), Seq II: 5
  Percentage of the pool, averaged across the two sequencing samples: 0.013%
  Percentage of the pool, Seq I: 0.014%
  Percentage of the pool, Seq II: 0.012%

## TFRKRLTATCGT
  Percentage Seq I: 0.016%
  Percentage Seq II: 0.028%
  Percentage Average: 0.022%
  Counts Seq I: 68
  Counts Seq II: 12

## GRLNECHAIWP
  Percentage Seq I: 0.112%
  Percentage Seq II: 0.104%
  Percentage Average: 0.108%
  Counts Seq I: 488
  Counts Seq II: 45

## CFAKRIVALHST
  Counts (raw counts for peptide sequence), Seq I: 54
  Counts (raw counts for peptide sequence), Seq II: 7
  Percentage of the pool, averaged across the two sequencing samples: 0.014%
  Percentage of the pool, Seq I: 0.012%
  Percentage of the pool, Seq II: 0.016%

## CFTQRIASGSK
  Percentage Seq I: 0.024%
  Percentage Seq II: 0.021%
  Percentage Average: 0.022%
  Counts Seq I: 105
  Counts Seq II: 9

## YAWGNRNNAYY
  Percentage Seq I: 0.060%
  Percentage Seq II: 0.049%
  Percentage Average: 0.054%
  Counts Seq I: 263
  Counts Seq II: 21

## CFRNRIDLIS
  Counts (raw counts for peptide sequence), Seq I: 49
  Counts (raw counts for peptide sequence), Seq II: 5
  Percentage of the pool, averaged across the two sequencing samples: 0.011%
  Percentage of the pool, Seq I: 0.011%
  Percentage of the pool, Seq II: 0.012%

## WRDRFDQCVP
  Percentage Seq I: 0.038%
  Percentage Seq II: 0.053%
  Percentage Average: 0.046%
  Counts Seq I: 167
  Counts Seq II: 23

## SSWAQLPCRR
  Percentage Seq I: 0.066%
  Percentage Seq II: 0.070%
  Percentage Average: 0.068%
  Counts Seq I: 289
  Counts Seq II: 30

## CFSSRTSLISGV
  Counts (raw counts for peptide sequence), Seq I: 27
  Counts (raw counts for peptide sequence), Seq II: 6
  Percentage of the pool, averaged across the two sequencing samples: 0.010%
  Percentage of the pool, Seq I: 0.006%
  Percentage of the pool, Seq II: 0.014%

## FQYFGTGIAFG
  Percentage Seq I: 0.301%
  Percentage Seq II: 0.325%
  Percentage Average: 0.313%
  Counts Seq I: 1316
  Counts Seq II: 140

## CFAGRLTIDAA
  Counts (raw counts for peptide sequence), Seq I: 78
  Counts (raw counts for peptide sequence), Seq II: 1
  Percentage of the pool, averaged across the two sequencing samples: 0.010%
  Percentage of the pool, Seq I: 0.018%
  Percentage of the pool, Seq II: 0.00232%
